{
  "source": "patent US10370642B2",
  "about": "“Hematopoietic progenitor cell populations having affinity for E-selectin / L-selectin” (priority 2000, dated 2019)",
  "molecules": {"B1": {"name": "KG1a PSGL-1: PSGL-1 immunoaffinity purified (PL-2) from KG1a cells (protein)", "chain": "QATEYEYLDYDFLPETEPPEMLRNSTDTTPLTGPGTPESTTVEPAARRSTGLDAGGAVTELTTELANMGNLSTDSAAMEIQTTQPAATEAQTTQPVPTEAQTTPLAATEAQTTRLTATEAQTTPLAATEAQTTPPAATEAQTTQPTGLEAQTTAPAAMEAQTTAPAAMEAQTTPPAAMEAQTTQTTAMEAQTTAPEATEAQTTQPTATEAQTTPLAAMEALSTEPSATEALSMEPTTKRGLFIPFSVSSVTHKGIPMAASNLSVNYPVGAPDHISVKQCLLAILILALVATIFFVCTVVLAVRLSRKGHMYPVRNYSPTEMVCISSLLPDGGEGPSATANGGLSKAKSPGLTPEPREDREGDDLTLHSFLP"}},
  "key": {"CD44": {"system": "CD44", "experiment": "[35S]-SO4 metabolic labeling of CD44 in KG1a cells", "assay_type": "cell-based, human", "settings": "10 mM sodium chlorate for 24 hr after bromelain", "from_the_text": "To determine if CD44 on KG1a cells is sulfated, KG1a cell cultures were metabolically labeled with [^35S]-SO4. CD44 immunoprecipitated from these cells was indeed sulfated (FIG. 11 A). To test whether sulfation was critical for L-selectin ligand activity of CD44, KG1a cells were pretreated with 0.1% bromelain, a protease that eliminates all KG1a HCLL activity (Sackstein, R. & Dimitroff, C. J. (2000). Blood. 96, 2765-2774) and also removes CD44 from the cell surface (Hale, L. P. & Haynes, B. F. (1992). J. Immunol 149:3809-3816). Following bromelain digestion of KG1a, re-expression of HCELL requires de novo protein synthesis, and protein synthesized in the presence of chlorate (a metabolic inhibitor of both protein and carbohydrate sulfation) is non-sulfated (Sackstein, R., Fu, L. and Allen, K. L. (1997). Blood. 89:2773-2781). Therefore, KG1a was treated with bromelain and confirmed removal of CD44 by flow cytometry. The KG1a cells were cultured in the absence or presence of 10 mM sodium chlorate for 24 hr and metabolically radiolabeled the cells for the last 8 hr of incubation with [^35S]-SO4 in sulfate-deficient CRCM-30 medium. […] This effect of chlorate was specific for sulfate incorporation and not a general inhibition of CD44 protein synthesis, as [^35S]-methionine/cysteine metabolic radioloabeling of CD44 was identical in chlorate- and non-chlorate-treated cell populations."}, "L-selectin [1]": {"target": "T1, L-selectin (Rattus norvegicus, UniProt P30836)", "T1 construct": "L-selectin naturally expressed on leukocytes; endogenous in cells; host or cells: lymphocytes (rat thoracic duct lymphocytes; human PBMC also prepared)", "T1 sequence (P30836 39-372)": "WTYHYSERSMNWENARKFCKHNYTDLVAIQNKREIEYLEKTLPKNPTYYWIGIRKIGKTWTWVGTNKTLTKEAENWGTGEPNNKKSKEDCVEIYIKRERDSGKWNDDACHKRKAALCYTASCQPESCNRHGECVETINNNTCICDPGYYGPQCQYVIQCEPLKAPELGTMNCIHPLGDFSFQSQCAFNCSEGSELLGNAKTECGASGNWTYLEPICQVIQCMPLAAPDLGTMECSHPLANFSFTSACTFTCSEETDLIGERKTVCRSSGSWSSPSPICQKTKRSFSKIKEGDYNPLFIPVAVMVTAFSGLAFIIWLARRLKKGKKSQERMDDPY", "experiment": "Stamper-Woodruff assay, lymphocyte adherence to immunoprecipitated CD44 and PSGL-1", "assay_type": "cell-based", "settings": "0.75 μg/spot (PSGL-1 1 μg/spot); 80 rpm, 4° C.; 100× mag.", "procedure": "These protein spots were then fixed in 3% glutaraldehyde, unreactive aldehyde groups were blocked in 0.2M lysine and slides were kept in RPMI-1640 without NaBicarbonate/2% FBS until ready for testing. Lymphocytes (10^7/ml RPMI-1640 without NaBicarbonate/5% FBS) were overlayed onto these fixed immunoprecipitates and incubated on an orbital shaker at 80 rpm for 30 min. at 4° C. The number of adherent lymphocytes was quantified by light microscopy using an ocular grid under 100× magnification (a minimum of 5 fields/slide, 2 slides/experiment, and 3 separate experiments). Data were presented as the mean number of bound lymphocytes±standard deviation. KG1a CD34 and L-selectin control immunoprecipitates were also tested in this manner. To verify the dependence for sialic acid, glutaraldehyde-fixed spots were treated with Vibrio cholerae neuraminidase (0.1 U/ml RPMI-1640 without NaBicarbonate/2% FBS for lhr at 37° C.).\nImmunoaffinity purified material (0.75-3 μg/spot) was spotted onto glass slides for analyses in the Stamper-Woodruff assay (See below for assay description). For autoradiographic analysis of immunoprecipitated [^35S]-methionine-radiolabeled CD44 and PSGL-1, immunoprecipitates were spotted onto glass slides, allowed to dry and exposed Kodak BioMax-MR film for 12 h at −80° C. Densitometric analysis (optical density) of the autoradiograms was performed with a Hewlett-Packard Scanj et 5200C scanner and NIH Image processing and analysis program."}, "E-selectin [2]": {"target": "T2, E-selectin (Homo sapiens, UniProt P16581)", "T2 construct": "stably transfected with full-length cDNA encoding human E-selectin; expressed in transfected cells", "T2 sequence (P16581 22-610)": "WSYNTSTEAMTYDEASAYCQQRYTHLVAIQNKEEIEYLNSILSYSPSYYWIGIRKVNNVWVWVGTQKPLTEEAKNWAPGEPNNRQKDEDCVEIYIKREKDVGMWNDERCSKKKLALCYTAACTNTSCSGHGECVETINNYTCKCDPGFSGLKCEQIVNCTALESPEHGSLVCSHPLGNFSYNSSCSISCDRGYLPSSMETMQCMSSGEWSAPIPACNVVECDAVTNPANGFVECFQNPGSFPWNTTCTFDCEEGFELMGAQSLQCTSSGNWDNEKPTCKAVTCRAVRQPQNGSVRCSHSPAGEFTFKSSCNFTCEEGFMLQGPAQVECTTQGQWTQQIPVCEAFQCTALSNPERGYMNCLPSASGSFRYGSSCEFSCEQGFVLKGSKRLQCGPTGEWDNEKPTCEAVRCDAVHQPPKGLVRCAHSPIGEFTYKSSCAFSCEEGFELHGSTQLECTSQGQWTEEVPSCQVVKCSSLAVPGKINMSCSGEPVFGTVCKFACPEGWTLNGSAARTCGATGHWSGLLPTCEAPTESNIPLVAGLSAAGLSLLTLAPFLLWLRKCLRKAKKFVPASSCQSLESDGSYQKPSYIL", "experiment": "CHO-E cell rolling on immobilized immunoprecipitates, parallel-plate flow chamber", "assay_type": "cell-based", "settings": "for E-selectin ligand activity (CHO-E cell rolling): immunoprecipitates on plastic, 2.8 dynes/cm^2", "procedure": "CD44 was immunoprecipitated from untreated cell lysates or from cell lysates treated with N-glycosidase-F (0.8 U/ml) Vibrio cholerae neuraminidase (0.1 U/ml) or a-L-fucosidase (80 mU/ml), and PSGL-1 was immunoprecipitated from untreated cell lysates as previously described (Sackstein and Dimitroff, 2000; Dimitroff et al., 2000).\nCD44 or PSGL-1 immunoprecipitates were spotted onto plastic petri dishes, fixed in 3% glutaraldehyde and incubated in 0.2M lysine to block unreactive aldehyde groups, and then non-specific binding was prevented by incubating in 100% FBS for 1 hr at RT. Fixed spots were also treated with Vibrio cholerae neuraminidase (0.1 U/ml assay medium), which was overlaid onto the spots and incubated at 37° C. for 1 hr. […] The flow rate was then increased to achieve a shear stress of 2.8 dynes/cm^2. The frequency of cells rolling per 100× magnification field was determined, and data were expressed as the mean±standard deviation of 8 fields visualized from a minimum of 3 experiments."}, "E-selectin [3]": {"target": "T2, E-selectin", "experiment": "Blot rolling assay with CHO-E cells", "assay_type": "cell-based", "settings": "immunoprecipitated CD44 on Western blot; 3.8 dynes/cm^2", "procedure": "The blot rolling assay was performed as previously described (Dimitroff et al., 2000). Briefly, CHO-E, CHO—P or CHO-Mock transfectants were isolated as described above, washed twice in HBSS and suspended at 10^7/ml in HBSS/10 mM HEPES/2mMCaCl2 (H/H/Ca++)/10% glycerol. Western blots of HPC membrane preparations stained with HECA-452 were rendered transparent by incubating them in H/H/Ca++/10% glycerol. The blots were then placed in the parallel-plate flow chamber, and CHO transfectants (2×10^6/ml) were perfused into the chamber. After allowing the cells to come in contact with the blotting membrane, the flow rate was adjusted to exert a shear stress of 3.8 dynes/cm^2. The viscosity of 10% glycerol adhesion assay medium was considered in the calculation of shear stress values. The number of cells rolling on and between each immunostained banding region was quantified under 100× magnification within each field of view on the video monitor using molecular weight markers (Kaleidoscope Molecular Weight Markers, Bio-Rad Lab.; See Blue® from Novex, Inc.) as guides to help align and visualize the apparent molecular weights of the proteins of interest. A minimum of 3 experiments was performed and results were expressed as the mean±SD of cell rolling/field at 100× magnification."}, "L-selectin [4]": {"system": "L-selectin", "experiment": "Blot rolling assay with L-selectin-expressing lymphocytes", "assay_type": "cell-based", "settings": "2.3 dynes/cm^2", "procedure": "L-selectin-expressing lymphocytes were isolated as previously described (Oxley, S. M. & Sackstein, R. (1994). Blood. 84:3299-3306; Sackstein, R., Fu, L. and Allen, K. L. (1997) Blood. 89:2773-2781), washed twice in HBSS and suspended at 2×10^7/ml in HBSS/10 mM HEPES/2mMCaCl2 (H/H/Ca^++)/10% glycerol. Cell lysate material is separated by SDS-PAGE and transferred to PVDF under standard blotting conditions. Western blots of KG1a membrane preparations stained with HECA-452, A3D8 or Hermes-1 were rendered transparent by incubating them in H/H/Ca^++/10% glycerol. To study L-selectin-mediated adhesive interactions, the blots were placed in the parallel plate flow chamber and lymphocytes were perfused into the chamber at a shear force of 2.3 dynes/cm^2 and cellular adhesive interactions are observed by video microscopy and analyzed in real time.\nThe number of lymphocytes rolling on and between each immunostained banding region was quantified from five independent fields under 200× magnification on the video monitor using molecular weight markers as guides to help align and visualize the proteins of interest. A minimum of 3 experiments were performed, and results were expressed as the mean of cell rolling/field."}, "P-selectin": {"target": "T3, P-selectin (Homo sapiens, UniProt P16109)", "T3 construct": "CHO-P (CHO stably transfected with human cDNA encoding full length P-selectin); expressed in transfected cells", "T3 sequence (P16109 42-830)": "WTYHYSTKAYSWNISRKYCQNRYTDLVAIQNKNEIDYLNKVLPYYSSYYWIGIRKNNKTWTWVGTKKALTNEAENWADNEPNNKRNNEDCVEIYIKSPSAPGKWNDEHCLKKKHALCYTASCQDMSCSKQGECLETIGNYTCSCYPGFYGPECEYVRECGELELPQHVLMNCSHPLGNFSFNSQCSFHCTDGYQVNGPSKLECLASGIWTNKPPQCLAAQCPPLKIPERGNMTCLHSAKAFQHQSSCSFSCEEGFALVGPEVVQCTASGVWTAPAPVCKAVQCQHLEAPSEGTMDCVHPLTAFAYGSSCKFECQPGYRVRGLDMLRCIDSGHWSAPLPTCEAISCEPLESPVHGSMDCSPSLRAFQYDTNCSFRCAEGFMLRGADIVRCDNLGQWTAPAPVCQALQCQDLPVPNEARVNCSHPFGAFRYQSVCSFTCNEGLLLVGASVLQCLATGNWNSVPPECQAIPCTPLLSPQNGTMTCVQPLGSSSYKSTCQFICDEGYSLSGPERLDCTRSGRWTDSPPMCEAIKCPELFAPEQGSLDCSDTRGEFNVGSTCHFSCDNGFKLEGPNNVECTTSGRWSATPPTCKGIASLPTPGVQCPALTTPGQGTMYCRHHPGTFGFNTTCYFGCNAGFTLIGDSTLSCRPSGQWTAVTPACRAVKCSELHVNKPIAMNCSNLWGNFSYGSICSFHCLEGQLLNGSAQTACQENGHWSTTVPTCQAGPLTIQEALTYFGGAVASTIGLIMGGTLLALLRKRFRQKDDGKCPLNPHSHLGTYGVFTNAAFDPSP", "experiment": "CHO-P cell rolling on immobilized immunoprecipitates, parallel-plate flow chamber", "assay_type": "cell-based", "settings": "2.8 dynes/cm^2", "procedure": "CD44 or PSGL-1 immunoprecipitates were spotted onto plastic petri dishes, fixed in 3% glutaraldehyde and incubated in 0.2M lysine to block unreactive aldehyde groups, and then non-specific binding was prevented by incubating in 100% FBS for 1 hr at RT. Fixed spots were also treated with Vibrio cholerae neuraminidase (0.1 U/ml assay medium), which was overlaid onto the spots and incubated at 37° C. for 1 hr. The protein dishes were placed in the parallel-plate flow chamber and CHO-E, CHO-P (CHO stably transfected with human cDNA encoding full length P-selectin), CHO-P cells treated with function blocking anti-P-selectin moAb (clone AK-4; Pharmingen) (10 μg/ml), CHO-E cells treated with function blocking anti-E-selectin Abs (10 μg/ml) (clone 68-5H1 1) or Mock transfectants were perfused into the chamber (2×10^6/ml H/H/Ca++) at a flow rate of 0.2 ml/min until the cells were in contact with the substrate. The flow rate was then increased to achieve a shear stress of 2.8 dynes/cm^2. The frequency of cells rolling per 100× magnification field was determined, and data were expressed as the mean±standard deviation of 8 fields visualized from a minimum of 3 experiments."}},
  "data": [
    {"molecule": "[O-][Cl+2]([O-])O", "note": "[chlorate, sodium chlorate]", "values": [
      {"measurement": "incorporation of [35S]-SO4 into immunoprecipitable CD44 (Hermes-1)", "setting": "CD44", "value": "completely inhibited"}
    ]},
    {"molecule": "KG1a N-glycosidase-F CD44: CD44 immunoprecipitated from N-glycosidase-F-treated KG1a membrane protein", "values": [
      {"measurement": "Mean Number of Bound Lymphocytes", "setting": "L-selectin [1]", "value": 30.7},
      {"measurement": "E-selectin ligand activity (CHO-E cell rolling)", "setting": "E-selectin [2]", "value": "abrogated CHO-E cell rolling"},
      {"measurement": "E-selectin ligand activity (CHO-E cell rolling) in blot rolling assay", "setting": "E-selectin [3]", "value": "completely abrogated CHO-E cell rolling"},
      {"measurement": "L-selectin ligand activity (lymphocyte tethering and rolling) in blot rolling assay", "setting": "L-selectin [4]", "value": "abolished all L-selectin-mediated lymphocyte tethering and rolling"}
    ]},
    {"molecule": "B1", "values": [
      {"measurement": "Mean Number of Bound Lymphocytes", "setting": "L-selectin [1]", "value": 44.8},
      {"measurement": "E-selectin ligand activity (CHO-E cell rolling)", "setting": "E-selectin [2]", "value": "significantly lower"},
      {"measurement": "CHO-E cell rolling", "setting": "E-selectin [2]; lower shear stress of 0.6 dynes/cm^2", "value": "equivalent to that of CD44"},
      {"measurement": "P-selectin ligand activity (CHO-P cell rolling)", "setting": "P-selectin", "value": "rolled on KG1a PSGL-1"}
    ]}
  ]
}
